Legend:
Assay in all cases: cell-based or functional assay
[1] = biological target: HIV-1 Env of pseudovirus Ce704809221_1B3 (HIV-1)
[2] = biological target: HIV-1 Env of pseudovirus CNE19 (HIV-1)
[3] = biological target: HIV-1 Env of pseudovirus 3415.v1.c1 (HIV-1)
[4] = biological target: HIV-1 Env of pseudovirus TRJO4551.58 (HIV-1)
[5] = biological target: HIV-1 Env of pseudovirus Du156.12 (HIV-1)
[6] = biological target: HIV-1 Env of pseudovirus Q23.17 (HIV-1)
[7] = biological target: HIV-1 Env of pseudovirus CAP45.2.00.G3 (HIV-1)
[8] = biological target: HIV-1 Env of pseudovirus C2101.c01 (HIV-1)
[9] = biological target: HIV-1 Env of pseudovirus 246F C1G (HIV-1)
[10] = biological target: HIV-1 Env of pseudovirus 6240_08_TA5_4622 (HIV-1)
[11] = biological target: HIV-1 Env of pseudovirus QH0692.42 (HIV-1)
[12] = biological target: HIV-1 Env of pseudovirus Q461.e2 (HIV-1)
[13] = biological target: HIV-1 Env of pseudovirus CNE30 (HIV-1)
[14] = biological target: HIV-1 Env of pseudovirus CNE17 (HIV-1)
[15] = biological target: HIV-1 Env of pseudovirus CNE8 (HIV-1)
[16] = biological target: HIV-1 Env of pseudovirus 249M B10 (HIV-1)
[17] = biological target: HIV-1 Env of pseudovirus 7030102001E5(Rev-) (HIV-1)
[18] = biological target: HIV-1 Env of pseudovirus SC422661.8 (HIV-1)
[19] = biological target: HIV-1 Env of pseudovirus Ce0682_E4 (HIV-1)
[20] = biological target: HIV-1 Env of pseudovirus T250-4 (HIV-1)
[21] = biological target: HIV-1 Env of pseudovirus 1056_10_TA11_1826 (HIV-1)
[22] = biological target: HIV-1 Env of pseudovirus 0260.v5.c36 (HIV-1)
[23] = biological target: HIV-1 Env of pseudovirus SC05_8C11_2344 (HIV-1)
[24] = biological target: HIV-1 Env of pseudovirus BF1266.431a (HIV-1)
[25] = biological target: HIV-1 Env of pseudovirus PVO.4 (HIV-1)
[26] = biological target: HIV-1 Env of pseudovirus HIV-001428-2.42 (HIV-1)
[27] = biological target: HIV-1 Env of pseudovirus THRO4156.18 (HIV-1)
[28] = biological target: HIV-1 Env of pseudovirus Ce1172_H1 (HIV-1)
[29] = biological target: HIV-1 Env of pseudovirus Ce1086_B2 (HIV-1)
[30] = biological target: HIV-1 Env of pseudovirus ZM249M.PL1 (HIV-1)
[31] = biological target: HIV-1 Env of pseudovirus CNE21 (HIV-1)
[32] = biological target: HIV-1 Env of pseudovirus 3365.v2.c2 (HIV-1)
[33] = biological target: HIV-1 Env of pseudovirus HIV-16845-2.22 (HIV-1)
[34] = biological target: HIV-1 Env of pseudovirus Q259.d2.17 (HIV-1)
[35] = biological target: HIV-1 Env of pseudovirus CAP210.2.00.E8 (HIV-1)
[36] = biological target: HIV-1 Env of pseudovirus 6535.3 (HIV-1)
[37] = biological target: HIV-1 Env of pseudovirus 1006_11_C3_1601 (HIV-1)

Substance: N49P7.1 (antibody)
- IC50 [1]: 0.211 µg/mL
- IC80 [1]: 1.35 µg/mL
- MPI [1]: 100
- IC50 [2]: 0.027 µg/mL
- IC80 [2]: 0.128 µg/mL
- MPI [2]: 100
- IC50 [3]: 0.191 µg/mL
- IC80 [3]: 0.647 µg/mL
- MPI [3]: 100
- IC50 [4]: 0.156 µg/mL
- IC80 [4]: 0.529 µg/mL
- MPI [4]: 100
- IC50 [5]: 0.045 µg/mL
- IC80 [5]: 0.131 µg/mL
- MPI [5]: 100
- IC50 [6]: 0.077 µg/mL
- IC80 [6]: 0.208 µg/mL
- MPI [6]: 100
- IC50 [7]: 0.086 µg/mL
- IC80 [7]: 0.567 µg/mL
- MPI [7]: 100
- IC50 [8]: 0.076 µg/mL
- IC80 [8]: 0.425 µg/mL
- MPI [8]: 100
- IC50 [9]: 0.049 µg/mL
- IC80 [9]: 0.165 µg/mL
- MPI [9]: 100
- IC50 [10]: 0.509 µg/mL
- IC80 [10]: 1.95 µg/mL
- MPI [10]: 100
- IC50 [11]: 0.764 µg/mL
- IC80 [11]: 2.71 µg/mL
- MPI [11]: 100
- IC50 [12]: 0.329 µg/mL
- IC80 [12]: 1.14 µg/mL
- MPI [12]: 100
- IC50 [13]: 0.307 µg/mL
- IC80 [13]: 1.01 µg/mL
- MPI [13]: 100
- IC50 [14]: 0.254 µg/mL
- IC80 [14]: 0.86 µg/mL
- MPI [14]: 100
- IC50 [15]: 0.048 µg/mL
- IC80 [15]: 0.167 µg/mL
- MPI [15]: 100
- IC50 [16]: 0.053 µg/mL
- IC80 [16]: 0.225 µg/mL
- MPI [16]: 100
- IC50 [17]: 0.11 µg/mL
- IC80 [17]: 0.498 µg/mL
- MPI [17]: 100
- IC50 [18]: 0.125 µg/mL
- IC80 [18]: 0.417 µg/mL
- MPI [18]: 100
- IC50 [19]: 0.026 µg/mL
- IC80 [19]: 0.099 µg/mL
- MPI [19]: 100
- IC50 [20]: 2.27 µg/mL
- IC80 [20]: 24.7 µg/mL
- MPI [20]: 89
- IC50 [21]: 0.171 µg/mL
- IC80 [21]: 0.603 µg/mL
- MPI [21]: 100
- IC50 [22]: 0.497 µg/mL
- IC80 [22]: 1.51 µg/mL
- MPI [22]: 100
- IC50 [23]: 0.189 µg/mL
- IC80 [23]: 0.688 µg/mL
- MPI [23]: 100
- IC50 [24]: 0.033 µg/mL
- IC80 [24]: 0.11 µg/mL
- MPI [24]: 100
- IC50 [25]: 0.124 µg/mL
- IC80 [25]: 0.421 µg/mL
- MPI [25]: 100
- IC50 [26]: 0.009 µg/mL
- IC80 [26]: 0.029 µg/mL
- MPI [26]: 100
- IC50 [27]: 3.07 µg/mL
- IC80 [27]: 12.6 µg/mL
- MPI [27]: 98
- IC50 [28]: 17.1 µg/mL
- IC80 [28]: > 50 µg/mL
- MPI [28]: 78
- IC50 [29]: 0.121 µg/mL
- IC80 [29]: 0.742 µg/mL
- MPI [29]: 99
- IC50 [30]: 0.071 µg/mL
- IC80 [30]: 0.239 µg/mL
- MPI [30]: 100
- IC50 [31]: 1.58 µg/mL
- IC80 [31]: 12.2 µg/mL
- MPI [31]: 96
- IC50 [32]: 0.088 µg/mL
- IC80 [32]: 0.289 µg/mL
- MPI [32]: 100
- IC50 [33]: 1.07 µg/mL
- IC80 [33]: 5.4 µg/mL
- MPI [33]: 100
- IC50 [34]: 0.505 µg/mL
- IC80 [34]: 4.23 µg/mL
- MPI [34]: 97
- IC50 [35]: 2.03 µg/mL
- IC80 [35]: 7.3 µg/mL
- MPI [35]: 99
- IC50 [36]: 0.224 µg/mL
- IC80 [36]: 0.715 µg/mL
- MPI [36]: 100
- IC50 [37]: 0.061 µg/mL
- IC80 [37]: 0.193 µg/mL
- MPI [37]: 100

Source: US20240117018A1
